From EP4803547A1 (Biontech (Zhuhai) Pharmaceuticals R&D Co., Ltd, dated 2026)

Experiments:
human CD40 on cells = target: T1, human CD40 on cells (human, UniProt P25942 21-277); assay: flow cytometry on CHO-hCD40 cells, anti-human IgG-Fc PE
T1 construct: whole, on cells; One molecule is used for human CD40 on the three cell types; also called CHO-hCD40; CHO-S cells overexpressing human CD40

human PD-1 on cells = target: T2, human PD-1 on cells (human, UniProt Q15116 25-288); assay: flow cytometry on CHO-hPD-1 cells, anti-human IgG-Fc PE
T2 construct: whole, on cells; also called CHO-hPD-1; CHO-S cells overexpressing human PD-1

human PD-1 protein = human PD-1 protein (human, UniProt Q15116 25-167, limits assumed); assay: BLI (ForteBio), antibody on AHQ sensor, 100 nM antigen, 1:1 model
human CD40 protein = human CD40 protein (human, UniProt P25942 21-193, limits assumed); assay: as above

Measured: binding result

Chain of human PD-1 protein (Q15116 25-167 limits assumed): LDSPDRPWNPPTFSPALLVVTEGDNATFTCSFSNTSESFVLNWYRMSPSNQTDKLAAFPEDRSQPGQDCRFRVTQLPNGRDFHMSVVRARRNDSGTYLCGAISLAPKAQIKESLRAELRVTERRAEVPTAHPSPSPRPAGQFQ
T1 sequence (P25942 21-277): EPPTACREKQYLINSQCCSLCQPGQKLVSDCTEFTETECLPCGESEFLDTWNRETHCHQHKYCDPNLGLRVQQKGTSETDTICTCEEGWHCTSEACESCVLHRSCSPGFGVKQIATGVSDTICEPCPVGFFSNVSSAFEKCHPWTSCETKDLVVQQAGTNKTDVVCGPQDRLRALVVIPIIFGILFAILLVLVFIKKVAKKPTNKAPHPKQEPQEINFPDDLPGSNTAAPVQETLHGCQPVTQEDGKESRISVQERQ
T2 sequence (Q15116 25-288): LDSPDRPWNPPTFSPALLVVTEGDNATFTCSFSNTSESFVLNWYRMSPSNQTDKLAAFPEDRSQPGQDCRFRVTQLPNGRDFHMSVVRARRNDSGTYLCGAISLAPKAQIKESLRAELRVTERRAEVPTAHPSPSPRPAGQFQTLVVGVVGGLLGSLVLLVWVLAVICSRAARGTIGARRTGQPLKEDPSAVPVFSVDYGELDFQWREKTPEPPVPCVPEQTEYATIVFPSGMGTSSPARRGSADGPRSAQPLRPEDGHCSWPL
Chain of human CD40 protein (P25942 21-193 limits assumed): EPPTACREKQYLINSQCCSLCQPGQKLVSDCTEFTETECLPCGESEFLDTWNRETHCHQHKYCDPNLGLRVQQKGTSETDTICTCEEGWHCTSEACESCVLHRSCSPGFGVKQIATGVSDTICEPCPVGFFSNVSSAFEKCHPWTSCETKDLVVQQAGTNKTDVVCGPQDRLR

B1: PD1(pembro)xCD40(non-blocker, ADI-55164) (bispecific antibody, human IgG1, kappa)
heavy: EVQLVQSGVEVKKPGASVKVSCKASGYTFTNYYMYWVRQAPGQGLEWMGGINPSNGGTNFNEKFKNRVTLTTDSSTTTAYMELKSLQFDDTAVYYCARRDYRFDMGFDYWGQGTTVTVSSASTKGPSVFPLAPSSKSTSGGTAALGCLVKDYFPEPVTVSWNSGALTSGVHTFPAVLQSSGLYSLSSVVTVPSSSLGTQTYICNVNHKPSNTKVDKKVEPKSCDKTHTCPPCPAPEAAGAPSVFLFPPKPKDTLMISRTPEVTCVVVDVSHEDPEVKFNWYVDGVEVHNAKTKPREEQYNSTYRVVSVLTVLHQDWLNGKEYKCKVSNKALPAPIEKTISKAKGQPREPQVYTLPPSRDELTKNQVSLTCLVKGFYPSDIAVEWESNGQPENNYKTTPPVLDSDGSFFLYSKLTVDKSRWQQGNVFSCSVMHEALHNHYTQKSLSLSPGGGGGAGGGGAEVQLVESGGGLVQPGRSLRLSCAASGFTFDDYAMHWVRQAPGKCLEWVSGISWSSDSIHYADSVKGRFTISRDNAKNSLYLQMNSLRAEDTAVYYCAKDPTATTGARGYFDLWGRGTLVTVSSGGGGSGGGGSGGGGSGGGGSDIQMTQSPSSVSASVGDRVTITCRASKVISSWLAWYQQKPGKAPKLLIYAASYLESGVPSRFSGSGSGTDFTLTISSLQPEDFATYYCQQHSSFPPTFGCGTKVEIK
light: EIVLTQSPATLSLSPGERATLSCRASKGVSTSGYSYLHWYQQKPGQAPRLLIYLASYLESGVPARFSGSGSGTDFTLTISSLEPEDFAVYYCQHSRDLPLTFGGGTKVEIKRTVAAPSVFIFPPSDEQLKSGTASVVCLLNNFYPREAKVQWKVDNALQSGNSQESVTEQDSKDSTYSLSSTLTLSKADYEKHKVYACEVTHQGLSSPVTKSFNRGEC
notes: also called BsAb-3; PD1(pembro)xCD40(ADI-55164)
binds: human CD40 on cells | human PD-1 on cells | human PD-1 protein | human CD40 protein

B2: PD1xCD40(blocker, ADI-55147) (bispecific antibody, human IgG1, kappa)
heavy: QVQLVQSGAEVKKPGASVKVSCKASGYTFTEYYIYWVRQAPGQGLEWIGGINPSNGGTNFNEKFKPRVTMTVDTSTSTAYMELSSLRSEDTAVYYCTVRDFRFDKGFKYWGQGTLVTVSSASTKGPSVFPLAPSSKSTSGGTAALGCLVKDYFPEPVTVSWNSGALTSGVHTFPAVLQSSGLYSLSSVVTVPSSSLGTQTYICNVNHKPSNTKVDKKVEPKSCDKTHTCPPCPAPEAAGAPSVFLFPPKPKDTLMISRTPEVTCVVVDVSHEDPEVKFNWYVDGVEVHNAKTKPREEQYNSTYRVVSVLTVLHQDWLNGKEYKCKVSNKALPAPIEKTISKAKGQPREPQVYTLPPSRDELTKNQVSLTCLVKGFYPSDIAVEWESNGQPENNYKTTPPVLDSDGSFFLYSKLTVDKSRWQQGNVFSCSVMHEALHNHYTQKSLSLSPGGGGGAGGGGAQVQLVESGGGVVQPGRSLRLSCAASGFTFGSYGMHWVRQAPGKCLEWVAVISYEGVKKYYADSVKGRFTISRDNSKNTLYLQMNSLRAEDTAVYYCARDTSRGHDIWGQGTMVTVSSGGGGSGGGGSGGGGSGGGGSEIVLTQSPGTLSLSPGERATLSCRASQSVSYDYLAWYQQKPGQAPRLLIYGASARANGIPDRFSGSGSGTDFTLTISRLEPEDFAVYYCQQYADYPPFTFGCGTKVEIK
light: EIVLTQSPATLSLSPGERATLSCRASKSVSTSGLNYVHWYQRKPGQAPRLLIYLGSYLDSGVPARFSGSGSGTDFTLTISSLEPEDFAVYYCQQSWELPLTFGGGTKVEIKRTVAAPSVFIFPPSDEQLKSGTASVVCLLNNFYPREAKVQWKVDNALQSGNSQESVTEQDSKDSTYSLSSTLTLSKADYEKHKVYACEVTHQGLSSPVTKSFNRGEC
notes: also called BsAb-2
binds: human CD40 on cells | human PD-1 on cells | human PD-1 protein | human CD40 protein
